This passage reports EC50 results from patent CN105461808A (CHANGCHUN GENESCIENCE PHARMACEUTICALS CO LTD, dated 2016).

To fix the notation:
B1: H018-17B5.5.1 (antibody, mouse IgG1, V domains shown)
VH: QVQLQQSGAELMKPGASVKISCKATGYKFSSYWIEWVKQRPGHGLEWIGEILPGSGNPNYDEKFKGKATFTADTSSNTAYMQLSSLTSEDSAVYYCARERWMDSWGQGTSVTVSS
VL: DIQMTQTASSLSASLGDRVTISCSASQGIFNYLNWYQQKPDGTVTVLIYYTSRLHSGVPSRFSGSGSGTDYSLTISNLEPEDIATYYCQQYSKLPYTFGGGTKLEIKR
notes: Mouse hybridoma antibody purified from supernatant
B2: H017-9C10.2.8 (antibody, mouse IgG1, V domains shown)
VH: QVQLKQSGFGLVLPSQSLSITCTVSGFSLTSYGVHWVRQSPGKGLEWLGLIWSGGGTDYNAAFISRLSISKDNSKSQVFFKINSLQANDTAIYYCARQLGLRAMDYWGQGTSVTVSS
VL: DILLTQSPAILSVSPGERVSFSCRASQSIGTTIHWYQQRTNGSPRLLIKYASESVSGIPSRFSGSGSGTDFTLSINSVESEDIADYYCQQSNSWPLTFGAGTKLEIK
notes: as for B1
B3: H017-6F11.3.2 (antibody, mouse IgG2b, V domains shown)
VH: EVQLQQSGAELVKPGASVKLSCTASGFNIKDTYIHWMRQRPEQGLEWIGRIDPANDNTKYDPKFQGKATVTADTSSNTAYLQLSSLTSEDTAVYYCARGLRLRYFDVWGAGTTVTVSS
VL: DIQMTQTPSSLSASLGGKVTITCKASQDIHKYIAWYQHKPGKGPRLLIHYTSTLQPGIPSRFSGSGSGRDFSFSISNLEPEDFETYYCLQYENLLPTFGGGTKLEIK
notes: as for B1

The first assay deals with T1, PDL1-hFc (human, UniProt Q9NZQ7 19-238, limits assumed).
T1 construct: Coating antigen of the ELISA on human PD-L1 and of the T cell proliferation assay; also called humanPDL-1; 人PDL-1; not shown: human Fc (hFc)
T1 sequence (Q9NZQ7 19-238 limits assumed): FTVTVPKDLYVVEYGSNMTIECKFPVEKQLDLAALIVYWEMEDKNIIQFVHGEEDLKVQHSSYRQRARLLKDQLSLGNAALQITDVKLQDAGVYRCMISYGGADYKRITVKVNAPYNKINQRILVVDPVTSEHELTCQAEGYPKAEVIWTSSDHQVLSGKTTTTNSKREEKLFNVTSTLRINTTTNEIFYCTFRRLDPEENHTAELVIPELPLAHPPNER
The experiment in a line: ELISA, PDL1-hFc coated 1 ug/ml, antibody titrated, HRP secondary. In general terms: ELISA stands for enzyme-linked immunosorbent assay.
By EC50 is commonly meant the midpoint of the concentration-response curve. Lower therefore signals an effect from little substance. The molecule B1 had an EC50 of 0.133 nM.

Molecule B2 returned an EC50 of 0.079 nM. This EC50 is about 1.7-fold lower than that of the molecule before.

Molecule B3 showed a 50% effective concentration (EC50) of 0.049 nM.

A further assay deals with T2, MonkeyPDL1-his (monkey).
T2 construct: Coating antigen of the ELISA on monkey PD-L1; also called 猴PDL-1
The experiment in a line: ELISA, MonkeyPDL1-his coated 1 ug/ml, antibody titrated, HRP secondary.
The molecule B1 came in with an EC50 of 0.7 nM.

Regarding B2, a half-maximal effect (EC50) was put at 0.191 nM. This EC50 lies about 3.7-fold lower than the previous one.

With B3, the EC50 is 0.123 nM.
